The record followed here is paper PMC4298044.

The target in experiment [1] is APP solubilized from human brain membranes (human (endogenous in brain frontal cortex)) (UniProt P05067). Nature of the experiment: sucrose density gradient ultracentrifugation; continuous 5-20% sucrose gradient, 0.15 M NaCl, 50 mM MgCl2, 0.5% Brij 97, 50 mM Tris-HCl pH 7.4; 250,000 x g, 4 hr, 4°C; fractions immunoblotted; markers β-galactosidase, catalase, alkaline phosphatase. On the technique in general: A western blot detects proteins with antibodies after separation by electrophoresis.

Experiment [2] shares this target. Nature of the experiment: native gel or EMSA; blue native-PAGE, NativePAGE Novex 4-16% Bis-Tris gels, samples with G-250 additive and dodecylmaltoside; brain membrane extracts and CSF; immunoblot with anti-APP antibodies. In general terms: In EMSA bound probe runs differently from free probe, usually more slowly.
The target in experiment [3] is soluble full-length APP (sAPPf) (human (endogenous in CSF)) (UniProt P05067). Nature of the experiment: co-IP + ELISA; CSF of AD and NDC subjects measured by sandwich ELISA (IBL sAPPα, IBL sAPPβ, or Novex kit that detects sAPPf and sAPPα) before and after immunoprecipitation with Sigma-Ct or IBL-β; read-out is the loss from the sample.
The target of experiment [4] is sAPPβ (sAPP fragment generated after β-secretase cleavage) (human (endogenous in CSF)). The experiment is described as above.

As a reminder, the stoichiometry N is a count of units in the complex or per binding partner. For the substance “APP solubilized from human brain membranes (from UniProt P05067 18-770) (natural protein)”, the stoichiometry N in experiment [1] and in experiment [2] was 2 in each case.

Take “sAPPα (sAPP fragment generated after α-secretase cleavage) (domain or fragment)”: the percent decrease of the ELISA level after immunoprecipitation of sAPPf (Sigma-Ct) in experiment [3] is 33%.

Take “sAPPβ (sAPP fragment generated after β-secretase cleavage) (domain or fragment)”: in experiment [3], the percent decrease of the ELISA level after immunoprecipitation of sAPPf (Sigma-Ct) was found to be 27%.

Regarding “soluble full-length APP (sAPPf) (from UniProt P05067 18-770) (natural protein)”, the percent decrease of the ELISA level of sAPPf plus sAPPα after immunoprecipitation of sAPPβ (IBL-β) in experiment [4] turned out to be 89%.
